Experimental data as given in the RNAGym collection of RNA variant scans (doi:10.7554/elife.90254).

B1: LINE1-full (parent)
chain: UACGUAGGUGGUUUUCCCCUGAUAGUGCUAAGGGGGCCUGGAAGUUUGGACUGGGCAGAGCUCAACACAGCGUGGCAAAGUGGCUGUGGCUAGACUGCCUCUCUGGAUUCCUCGUCACUCAGCAGGGCAUCUCUGAGAGAAAUGCC

Variants of: B1
Assay: self-cleavage, relative activity (ratio to wild type); higher = more cleavage; in vitro, sequencing; the parent is a self-cleaving ribozyme

In order of falling self-cleavage:
1. UACGUGGGUGGUUUUCCCCUGAUAGUGCUAAGGGGGCCUGGAAGUUUGGACUGGGCAGAGCUCAACACAGCGUGGCAAAGUGGCUGUGGCUAGACUGCCUCUCUGGAUUCCUCGUCUCUCAGCAGGGCAUCUCUGAGAGAAAUGCC [A6G A117U]  2.04
2. UACGUGGGUGGUUUUCCCCUGAUAGUGCUAAGGGGGCUUGGAAGUUUGGACUGGGCAGAGCUCAACACAGCGUGGCAAAGUGGCUGUGGCUAGACUGCCUCUCUGGAUUCCUCGUCACUCAGCAGGGCAUCUCUGAGAGAAAUGCC [A6G C38U]  1.62
3. UACGUGGGUGGUUUUCCCCUGAUAGUGCUAAGGGGGCCUGGAAGUUUGGACUGGGCAGAGCUCAACACAGCGUGGCAAAGUGGCUGUGGCUAGACUGCCUCUCUGGAUUCCUCGUCGCUCAGCAGGGCAUCUCUGAGAGAAAUGCC [A6G A117G]  1.41
4. UACGUGGGUGGUUUUCCCCUGAUAGUGCUAAGGGGGCCUGGAAGUUUGGACUGGGCAGAGCUCAACACAGCGUGGCAAAGUGGCUGUGGCUUGACUGCCUCUCUGGAUUCCUCGUCACUCAGCAGGGCAUCUCUGAGAGAAAUGCC [A6G A92U]  1.23
5. UACGUGGGUGGUUUUCCCCUGAUAGUGCUAAGGGGGCCUGGAAGUUUGGACUGGGCAGAGCUCAACACAGCGUGGCAAAGUGGCUGUGGCUAGACUGCCUCUCUGGAUUCCUAGUCACUCAGCAGGGCAUCUCUGAGAGAAAUGCC [A6G C113A]  1.18
6. UACGUGGGUGGUUUUCCCCUGAUAGUGCUAAGGGGGCCUGGAAGUUUGGACUGGGCAGAGCUCAACACAGCGUGGCAGAGUGGCUGUGGCUAGACUGCCUCUCUGGAUUCCUCGUCACUCAGCAGGGCAUCUCUGAGAGAAAUGCC [A6G A78G]  1.15
7. UACGUGGGUGGUUUUCCCCUGAUAGUGCUAAGGGGGCCUGGAAGUUUGGACUGGGCAGAGCUCAACACAGCGUGGCAAAGUGGCUGUGGCUAGACUGCCUCUCUGUAUUCCUCGUCACUCAGCAGGGCAUCUCUGAGAGAAAUGCC [A6G G106U]  1.06
8. UACGUGGGUGGUUUUCCCCUGAUAGUGCUAAGGGGGCCUGGAAGUUUGGACUGGGCAGAGCUCAACACAGCGUGGCAAAGUGGCUGUGGCUAGACUGCCUCUCUGGAUUCCUCGUCACUCAGCAGGGCAUCUCUGAGAGAAAUGCU [A6G C146U]  1.05
9. UACGUGGGUGGUUUUCCCCUGAUAGUGCUAAGGGGGCCUGGAAGUUUGGACUGGGCAGAGCUCAACACAGCGUGGCAAAGUGGCUGUGGCUAGACUGCCUCUCUGGAUUCCUCGUCACUCAGCAGGGCAUCUCUGAGAGAAGUGCC [A6G A142G]  1.01
10. UACGUGGGUGGUUUUCCCCUGAUAGUGCUAAGGGGGCCUGGAAGUUUGGACUGGGCAGAGCUCAACACAGCGUGGCAAAGUGGCUGUGGCUAGACUGCCUCUCUGGAUUCCUUGUCACUCAGCAGGGCAUCUCUGAGAGAAAUGCC [A6G C113U]  0.84
11. UACGUGGGUGGUUUUCCCCUGAUAGUGCUAAGGGGGCCUGGAAGUUUGGACUGGGCAGAGCUCAACACAGCGUGGCAAGGUGGCUGUGGCUAGACUGCCUCUCUGGAUUCCUCGUCACUCAGCAGGGCAUCUCUGAGAGAAAUGCC [A6G A79G]  0.8
12. UACGUGGGUGGUUUUCCCCUGAUAGUGCUAAGGGGGCCUGGAAGUUUGGACUGGGCAGAGCUCAACACAGCGUGGCAAAGUGGCUGUGGCUAGACUGCCUCUCUGGAUUCCUCGUCACUCAGCAGGGCAUCUCUGAGAGUAAUGCC [A6G A140U]  0.77
13. UACGUGGGUGGUUUUCCCCUGAUAGUGCUAAGGGGGACUGGAAGUUUGGACUGGGCAGAGCUCAACACAGCGUGGCAAAGUGGCUGUGGCUAGACUGCCUCUCUGGAUUCCUCGUCACUCAGCAGGGCAUCUCUGAGAGAAAUGCC [A6G C37A]  0.76
14. UACGUGGGUGGUUUUCCCCUGAUAGUGCUAAGGGGGCCUGGAAGUUUGGACUGGGCAGAGCUCAACACAGCGUGGCAAAGUGGCUGUGGCUAGACUGCCUCUCUGGGUUCCUCGUCACUCAGCAGGGCAUCUCUGAGAGAAAUGCC [A6G A107G]  0.74
15. UACGUGGGUGGUUUUCCCCUGAUAUUGCUAAGGGGGCCUGGAAGUUUGGACUGGGCAGAGCUCAACACAGCGUGGCAAAGUGGCUGUGGCUAGACUGCCUCUCUGGAUUCCUCGUCACUCAGCAGGGCAUCUCUGAGAGAAAUGCC [A6G G25U]  0.69
16. UACGUGGGUGGUUUUCCCCUGAUAGUGCUAAGGGGGCCUGGAAGUUUGGACUGGGCAGAGCUCAACACAGCGUGGCAAAGUGGCUGUGGCUAGACUGCCUCUCUGGAUUCCUCGUCACUCAGCAGGGCAUCUCUGAGAGGAAUGCC [A6G A140G]  0.69
17. UACGUGGGUGGUUUUCCCCUGAUAGUGCUAAGGGGGCCUGGAAGUUUGGACUGGGCAGAGCUCAACUCAGCGUGGCAAAGUGGCUGUGGCUAGACUGCCUCUCUGGAUUCCUCGUCACUCAGCAGGGCAUCUCUGAGAGAAAUGCC [A6G A67U]  0.68
18. UACGUGGGUGGUUUUCCCCUGAUAGUGCUAAAGGGGCCUGGAAGUUUGGACUGGGCAGAGCUCAACACAGCGUGGCAAAGUGGCUGUGGCUAGACUGCCUCUCUGGAUUCCUCGUCACUCAGCAGGGCAUCUCUGAGAGAAAUGCC [A6G G32A]  0.68
19. UACGUGGGUGGUUUUCCCCUGAUAGUGCUAAGGGGGCCUGGAAGUUUGGACUGGGCAGAGCUCAACACAGCGUGGCAAAGUGGCUGUGGCUAGACUGCCUCUCUGAAUUCCUCGUCACUCAGCAGGGCAUCUCUGAGAGAAAUGCC [A6G G106A]  0.66
20. UACGUGGGUGGUUUUCCCCUGAUAGUGCUAAGGGGGCCUGGAAGUUUGGACUGGGCAGAGCUCGACACAGCGUGGCAAAGUGGCUGUGGCUAGACUGCCUCUCUGGAUUCCUCGUCACUCAGCAGGGCAUCUCUGAGAGAAAUGCC [A6G A64G]  0.62
21. UACGUGGGUGGUUUUCCCCUGAUAGUGCUAAGGGGGCCUGGAAGUUUGGACUGGGCAGAGCUCAACACAGCGUGGCAAAGUGGCUGUGGCUAGACUGCCUCUCUGGAUUCCUCGUCACUCAGCAGGGCUUCUCUGAGAGAAAUGCC [A6G A129U]  0.6
22. UACGUGGGUGGUUUUCCCCUGAUAGUGCUAAGGGGGCCUGGAAGUUUGGACUGGGCAGAGCUCAACACAGCGUGGCAAAGUGGCUGUGGCUAGACUGCCUCUCUGGAUUCCUCGUCACUCAGCAGGGCAUCUUUGAGAGAAAUGCC [A6G C133U]  0.59
23. UACGUGGGUGGUUUUCCCCUGAUAGUGCUAAGGGGGCCUGGAAGUUUGGACUGGGCAGAGCUCAACACAGCGUGGCAAAGUGGCUGUGGCUAGACUGCCUAUCUGGAUUCCUCGUCACUCAGCAGGGCAUCUCUGAGAGAAAUGCC [A6G C101A]  0.56
24. UACGUGGGUGGUUUUCCCCUUAUAGUGCUAAGGGGGCCUGGAAGUUUGGACUGGGCAGAGCUCAACACAGCGUGGCAAAGUGGCUGUGGCUAGACUGCCUCUCUGGAUUCCUCGUCACUCAGCAGGGCAUCUCUGAGAGAAAUGCC [A6G G21U]  0.53
25. UACGUGGGUGGUUUUCCCCUGAUAGUGCUAAGAGGGCCUGGAAGUUUGGACUGGGCAGAGCUCAACACAGCGUGGCAAAGUGGCUGUGGCUAGACUGCCUCUCUGGAUUCCUCGUCACUCAGCAGGGCAUCUCUGAGAGAAAUGCC [A6G G33A]  0.49
26. UACGUGGGUGGUUUUCCCCUGAUAGUGCUAAGGGGGCCUGUAAGUUUGGACUGGGCAGAGCUCAACACAGCGUGGCAAAGUGGCUGUGGCUAGACUGCCUCUCUGGAUUCCUCGUCACUCAGCAGGGCAUCUCUGAGAGAAAUGCC [A6G G41U]  0.46
27. UACGUGGGUGGUUUUCCCCUGAUAGUGCUAAGGGGGCCUGGAAGUUUGGACUGGGCAGAGCUCAACACAGCGUAGCAAAGUGGCUGUGGCUAGACUGCCUCUCUGGAUUCCUCGUCACUCAGCAGGGCAUCUCUGAGAGAAAUGCC [A6G G74A]  0.4
28. UACGUGGGUGGUUUUCCCCUGAUAGUGCUAAGGGGGCCUGGAAGUUUGGACUGGGCAGAGCUCAACGCAGCGUGGCAAAGUGGCUGUGGCUAGACUGCCUCUCUGGAUUCCUCGUCACUCAGCAGGGCAUCUCUGAGAGAAAUGCC [A6G A67G]  0.39
29. UACGUGGGUGGUUUUCCCCUGAUAGUGCUAAGGGGGCCUGGAAGUUUGGACUGGGCAGAGCUCAACACGGCGUGGCAAAGUGGCUGUGGCUAGACUGCCUCUCUGGAUUCCUCGUCACUCAGCAGGGCAUCUCUGAGAGAAAUGCC [A6G A69G]  0.32
30. UACGUGGGUGGUUUUCUCCUGAUAGUGCUAAGGGGGCCUGGAAGUUUGGACUGGGCAGAGCUCAACACAGCGUGGCAAAGUGGCUGUGGCUAGACUGCCUCUCUGGAUUCCUCGUCACUCAGCAGGGCAUCUCUGAGAGAAAUGCC [A6G C17U]  0.28
31. UACGUGGGUGGUUUUCCCCUGAUAGUGCUAAGGGGGCCUGGAAGUUUGGACUGGGUAGAGCUCAACACAGCGUGGCAAAGUGGCUGUGGCUAGACUGCCUCUCUGGAUUCCUCGUCACUCAGCAGGGCAUCUCUGAGAGAAAUGCC [A6G C56U]  0.27
32. UACGUGGGUGGUUUUCCCCUGAUAGUGCUAAGGGGGCCUGGAAGUUUGGACUGGGCAGAGCUCAACACAGCGUGGCAAAGUGGCUGUGGCUAGACUGCCUCUCUGGAUUCCUCGUCACUCAGCAGGGCGUCUCUGAGAGAAAUGCC [A6G A129G]  0.26
33. UACGUGGGUGGUUUUCCCCUGAUAGUGCUAAGGGGGCCUGGAAGUUUAGACUGGGCAGAGCUCAACACAGCGUGGCAAAGUGGCUGUGGCUAGACUGCCUCUCUGGAUUCCUCGUCACUCAGCAGGGCAUCUCUGAGAGAAAUGCC [A6G G48A]  0.22
34. UACGUGGGUGGUUUUCCCCUGAUAGUGCUAAGGGGGCCUGGAAGUUUGGACUGGGCAGAGCUCAACACAGCGUGGCAAAGUGGCUGUGGCUGGACUGCCUCUCUGGAUUCCUCGUCACUCAGCAGGGCAUCUCUGAGAGAAAUGCC [A6G A92G]  0.22
35. UACGUGGGUGGUUUUCCCCUGAUAGUGCUAAGGGGGCCUGGAAGUUUGGACUGGGCAGAGCUCAACACUGCGUGGCAAAGUGGCUGUGGCUAGACUGCCUCUCUGGAUUCCUCGUCACUCAGCAGGGCAUCUCUGAGAGAAAUGCC [A6G A69U]  0.22
36. UACGUGGGUGGUUUUCCCCUGAUAGUGCUAAGGGGGCCUGGAAGUUUGGACUGGGCAGAGCUCAACACAGCGUGGCAAAGUGGCUGUGGCUAGACUACCUCUCUGGAUUCCUCGUCACUCAGCAGGGCAUCUCUGAGAGAAAUGCC [A6G G97A]  0.18
37. UACGUGGGUGGUUUUCCCCUGAUAGUGCUAAGGGGGCCUGGAAGUUUGGACUGGGCAGAGCUCAACACAGCGUGGCAAAGUGGCUGUGGCUAAACUGCCUCUCUGGAUUCCUCGUCACUCAGCAGGGCAUCUCUGAGAGAAAUGCC [A6G G93A]  0.14
38. UACGUGGGUGGUUUUCCCCUGAUAAUGCUAAGGGGGCCUGGAAGUUUGGACUGGGCAGAGCUCAACACAGCGUGGCAAAGUGGCUGUGGCUAGACUGCCUCUCUGGAUUCCUCGUCACUCAGCAGGGCAUCUCUGAGAGAAAUGCC [A6G G25A]  0.1
39. UACGUGGGUGGUUUUCCCCUGAUAGUGCUAAGGGGGCCUGGAAGUUUGGACUGGGCAGAGCUCAGCACAGCGUGGCAAAGUGGCUGUGGCUAGACUGCCUCUCUGGAUUCCUCGUCACUCAGCAGGGCAUCUCUGAGAGAAAUGCC [A6G A65G]  0.09
